# Experimental data reported in IntAct's records for PubMed 20974977.
# B1: Interleukin-27 subunit alpha (Homo sapiens), Q8NEV9 (parent)
# chain: MGQTAGDLGWRLSLLLLPLLLVQAGVWGFPRPPGRPQLSLQELRREFTVSLHLARKLLSEVRGQAHRFAESHLPGVNLYLLPLGEQLPDVSLTFQAWRRLSDPERLCFISTTLQPFHALLGGLGTQGRWTNMERMQLWAMRLDLRDLQRHLRFQVLAAGFNLPEEEEEEEEEEEEERKGLLPGALGSALQGPAQVSWPQLLSTYRLLHSLELVLSRAVRELLLLSKAGHSVWPLGFPTLSPQP
# partner: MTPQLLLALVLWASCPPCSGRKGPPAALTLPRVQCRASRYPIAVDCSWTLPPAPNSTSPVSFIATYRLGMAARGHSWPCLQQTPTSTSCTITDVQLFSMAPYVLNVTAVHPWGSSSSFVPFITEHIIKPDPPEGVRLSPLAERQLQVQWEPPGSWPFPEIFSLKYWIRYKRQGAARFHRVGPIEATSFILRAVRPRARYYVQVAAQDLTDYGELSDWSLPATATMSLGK
# B2: Interleukin-27 subunit beta (Homo sapiens), Q14213 (parent)
# chain: B1 partner
# partner: B1 chain
# Variants of: B1
# Settings: with il27b_human EBI3, Q14213
row,Variant,effect of a mutation on the interaction
1,MGQTAGDLGWRLSLLLLPLLLVQAGVWGFPRPPGRPQLSLQELRREFTVSLHLARKLLSEVRGQAHRFAESHLPGVNLYLLPLGEQLPDVSLTFQAWRRLSDPERLCFISTTLQPFHALLGGLGTQGRWTNMERMQLWAMRLDLRDLQRHLRFQVLAAGFNLPEEEEEEEEEEEEERKGLLPGALGSALQGPAQVSAPQLLSTYRLLHSLELVLSRAVRELLLLSKAGHSVWPLGFPTLSPQP [W197A],increasing interaction
2,MGQTAGDLGWRLSLLLLPLLLVQAGVWGFPRPPGRPQLSLQELRREFTVSLHLARKLLSEVRGQAHRFAESHLPGVNLYLLPLGEQLPDVSLTFQAARRLSDPERLCFISTTLQPFHALLGGLGTQGRWTNMERMQLWAMRLDLRDLQRHLRFQVLAAGFNLPEEEEEEEEEEEEERKGLLPGALGSALQGPAQVSWPQLLSTYRLLHSLELVLSRAVRELLLLSKAGHSVWPLGFPTLSPQP [W97A],disrupting interaction

# Variants of: B2
# Settings: with il27a_human IL27, Q8NEV9
row,Variant,effect of a mutation on the interaction
1,MTPQLLLALVLWASCPPCSGRKGPPAALTLPRVQCRASRYPIAVDCSWTLPPAPNSTSPVSFIATYRLGMAARGHSWPCLQQTPTSTSCTITDVQLFSMAPYVLNVTAVHPWGSSSSFVPFITEHIIKPDPPEGVRLSPLAERQLQVQWEPPGSWPFPAIFSLKYWIRYKRQGAARFHRVGPIEATSFILRAVRPRARYYVQVAAQDLTDYGELSDWSLPATATMSLGK [E159A],decreasing interaction
2,MTPQLLLALVLWASCPPCSGRKGPPAALTLPRVQCRASRYPIAVDCSWTLPPAPNSTSPVSFIATYRLGMAARGHSWPCLQQTPTSTSCTITDVQLFSMAPYVLNVTAVHPWGSSSSFVPFITEHIIKPDPPEGVRLSPLAERQLQVQWEPPGSWPFPEIFSLKYWIRYKRQGAARFHRVGPIEATSFILRAVRPRARYYVQVAAQDLTAYGELSDWSLPATATMSLGK [D210A],disrupting interaction
3,MTPQLLLALVLWASCPPCSGRKGPPAALTLPRVQCRASRYPIAVDCSWTLPPAPNSTSPVSFIATYRLGMAARGHSWPCLQQTPTSTSCTITDVQLASMAPYVLNVTAVHPWGSSSSFVPFITEHIIKPDPPEGVRLSPLAERQLQVQWEPPGSWPFPEIFSLKYWIRYKRQGAARFHRVGPIEATSFILRAVRPRARYYVQVAAQDLTDYGELSDWSLPATATMSLGK [F97A],decreasing interaction
